The experiment concerns the target human αVβ3/5 integrin (human) (UniProt P06756). Briefly: cell-based or functional assay. Details: IC50 of doxorubicin, cell viability, colon cancer HT29 cells, targeted liposomes 40:1 / IC50 of doxorubicin, cell viability, colon cancer HT29 cells, targeted liposomes 90:1 / IC50 of doxorubicin, cell viability, melanoma A375.S2 cells, targeted liposomes 40:1 / IC50 of doxorubicin, cell viability, melanoma A375.S2 cells, targeted liposomes 90:1 / IC50 of doxorubicin, cell viability, ovarian cancer A2780 cells, targeted liposomes 40:1 / IC50 of doxorubicin, cell viability, ovarian cancer A2780 cells, targeted liposomes 90:1: unit not given beside the values.

human αVβ3/5 integrin (human), sequence (P06756 31-1048): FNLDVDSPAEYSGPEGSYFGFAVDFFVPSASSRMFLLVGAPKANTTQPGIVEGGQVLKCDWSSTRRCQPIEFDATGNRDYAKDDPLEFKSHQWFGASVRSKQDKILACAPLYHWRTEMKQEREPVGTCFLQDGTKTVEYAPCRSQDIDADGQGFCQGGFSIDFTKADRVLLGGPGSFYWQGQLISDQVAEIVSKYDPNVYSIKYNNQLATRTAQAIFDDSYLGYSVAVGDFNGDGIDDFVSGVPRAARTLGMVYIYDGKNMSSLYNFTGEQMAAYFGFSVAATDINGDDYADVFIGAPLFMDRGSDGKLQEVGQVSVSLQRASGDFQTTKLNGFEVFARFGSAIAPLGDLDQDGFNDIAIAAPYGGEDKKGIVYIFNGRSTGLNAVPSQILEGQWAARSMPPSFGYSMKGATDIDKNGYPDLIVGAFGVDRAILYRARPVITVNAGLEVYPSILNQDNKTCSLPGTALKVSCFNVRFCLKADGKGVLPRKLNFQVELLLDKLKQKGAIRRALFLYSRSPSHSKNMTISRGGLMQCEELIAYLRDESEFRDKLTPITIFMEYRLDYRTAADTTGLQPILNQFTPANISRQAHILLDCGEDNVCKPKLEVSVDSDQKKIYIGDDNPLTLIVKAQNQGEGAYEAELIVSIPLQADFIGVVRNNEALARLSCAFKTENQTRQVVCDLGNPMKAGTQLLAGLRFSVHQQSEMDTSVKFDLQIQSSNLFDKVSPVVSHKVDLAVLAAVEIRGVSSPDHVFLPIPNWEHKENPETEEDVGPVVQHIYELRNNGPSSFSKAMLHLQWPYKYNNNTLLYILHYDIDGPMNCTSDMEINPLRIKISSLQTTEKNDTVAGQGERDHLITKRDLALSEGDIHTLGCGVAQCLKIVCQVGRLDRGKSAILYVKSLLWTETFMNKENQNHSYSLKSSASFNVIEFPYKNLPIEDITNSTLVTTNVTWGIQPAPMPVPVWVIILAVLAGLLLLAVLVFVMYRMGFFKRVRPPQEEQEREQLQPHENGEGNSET

Regarding “CNTO 95 Fab′ (anti-alpha-V Fab′ made by pepsin cleavage of the parent antibody, reduction and reoxidation), conjugated to MalPEG-DSPE on the surface of liposomes”, the IC50 of doxorubicin, cell viability, colon cancer HT29 cells, targeted liposomes 40:1 was 180; the IC50 of doxorubicin, cell viability, colon cancer HT29 cells, targeted liposomes 90:1 is > 200; the IC50 of doxorubicin, cell viability, melanoma A375.S2 cells, targeted liposomes 40:1 worked out at 15; the IC50 of doxorubicin, cell viability, melanoma A375.S2 cells, targeted liposomes 90:1 stood at 7. Besides, the IC50 of doxorubicin, cell viability, ovarian cancer A2780 cells, targeted liposomes 40:1 was 12; the IC50 of doxorubicin, cell viability, ovarian cancer A2780 cells, targeted liposomes 90:1 was 7; the Increase (ratio of IC50 of liposome-entrapped doxorubicin to IC50 of 90:1 targeted liposomes), A375.S2 cells worked out at 29 fold; the Increase (ratio of IC50 of liposome-entrapped doxorubicin to IC50 of 90:1 targeted liposomes), A549 cells is 1 fold. Also, the Increase (ratio of IC50 of liposome-entrapped doxorubicin to IC50 of 90:1 targeted liposomes), A2780 cells was determined as 29 fold; the Increase (ratio of IC50 of liposome-entrapped doxorubicin to IC50 of 90:1 targeted liposomes), HT29 cells is 1.1 fold; the Increase (ratio of IC50 of liposome-entrapped doxorubicin to IC50 of 90:1 targeted liposomes), MDA-MB-231 cells was 5 fold.

The values are drawn from patent US20090163698A1, “Method for Preparing Antibody Conjugates” (priority 2007, published 2009).
